Measurements as given in publication PMC5694952 (The EMBO Journal, 2016).

B2: chloroplast ribosomal protein uS5c (natural protein, UniProt Q9ST69 56-308, looked up)
chain: CIKKDDIDITFFEQDNPDEEITFDPPEKPEGYIPPRAVDEPPFESEEEIALAYEELYGAAYSGESLLGNDVYAMDSKIKKATGFGSKSKKEKIRDGFEENVVQVRRVTKVVKGGKHMRFRAIVVVGDKKGQVGVGVGKAKEVVSAVQKAAVDARRNIITVPMTKYLTFPHRNEADYGAARVMLRPAAPGTGVIAGGAVRTVLEMAGVENALGKQLGSNNALNNARATIVAVQTMRQFSDVARDRGIPMEELWK
B4: chloroplast ribosomal protein bL21c (natural protein, UniProt P24613 56-256, looked up)
chain: AKRRRFQEIPEELKAEFEEFQRPPNQKPQLSDVLPDDFQAPEPGTPEYNDIINQFLPKKGPPPPREEIFAVVVIGSRQYIVIPGRWIYTQRLKGATVNDKIVLNKVLLVGTKASTYIGTPIVTNAAVHAVVEEQLLDDKVIVFKYKKKKNYRRNIGHRQPITRIKITGITGYEDYPASTLEAEVEAKEEAEAEAEAEAVPV

Assays:
Experiment in all cases: cryo-EM structure
[1] = target: T1, chloroplast ribosomal protein uS13c (spinach (Spinacia oleracea) (endogenous …, UniProt P82163 48-172))
T1 sequence (looked up): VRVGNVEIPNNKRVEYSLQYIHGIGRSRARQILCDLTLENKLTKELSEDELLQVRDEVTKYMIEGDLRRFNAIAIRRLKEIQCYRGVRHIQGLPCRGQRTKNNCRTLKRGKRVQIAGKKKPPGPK

[2] = target: T2, chloroplast ribosomal protein uL13c (spinach (Spinacia oleracea) (endogenous …, UniProt P12629 48-250))
T2 sequence (looked up): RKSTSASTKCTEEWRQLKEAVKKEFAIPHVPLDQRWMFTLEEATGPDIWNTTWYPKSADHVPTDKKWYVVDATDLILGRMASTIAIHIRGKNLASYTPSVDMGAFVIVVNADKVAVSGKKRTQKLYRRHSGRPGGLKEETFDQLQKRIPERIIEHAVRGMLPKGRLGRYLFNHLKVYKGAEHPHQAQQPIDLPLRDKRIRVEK

[3] = target: T3, chloroplast ribosomal protein bS1c (spinach (Spinacia oleracea) (endogenous …, UniProt P29344 42-411))
T3 sequence (looked up): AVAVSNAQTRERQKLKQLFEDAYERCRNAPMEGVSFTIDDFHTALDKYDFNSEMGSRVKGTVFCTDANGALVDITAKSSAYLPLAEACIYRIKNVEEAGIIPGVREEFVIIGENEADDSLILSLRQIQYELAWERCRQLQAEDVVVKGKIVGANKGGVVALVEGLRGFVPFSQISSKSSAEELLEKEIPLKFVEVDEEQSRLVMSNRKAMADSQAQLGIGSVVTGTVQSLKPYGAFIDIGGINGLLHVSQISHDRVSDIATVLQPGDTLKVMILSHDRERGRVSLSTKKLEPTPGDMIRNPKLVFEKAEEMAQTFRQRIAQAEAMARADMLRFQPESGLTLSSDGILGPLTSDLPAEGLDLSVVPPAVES

[4] = target: T4, chloroplast ribosomal protein uL23c (spinach (Spinacia oleracea) (endogenous …, UniProt Q9LWB5 77-198))
T4 sequence (looked up): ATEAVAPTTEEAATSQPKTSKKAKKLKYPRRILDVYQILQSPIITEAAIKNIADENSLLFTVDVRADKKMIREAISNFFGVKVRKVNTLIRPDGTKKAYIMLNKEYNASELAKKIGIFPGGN

[5] = target: B2
[6] = target: B4
[7] = target: T5, chloroplast ribosomal protein bL20c (spinach (Spinacia oleracea) (endogenous …, UniProt P28803 1-128))
T5 sequence (looked up): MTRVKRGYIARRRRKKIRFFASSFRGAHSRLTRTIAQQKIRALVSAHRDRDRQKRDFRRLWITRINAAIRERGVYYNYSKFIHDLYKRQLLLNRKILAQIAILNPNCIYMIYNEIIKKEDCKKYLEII

Binder: GRGDRKTAKGKRFNHSFGNARPKNKNKGRGPPKAPIFPKGDPSQKED (natural protein, UniProt P47910 55-101, looked up) [plastid-specific ribosomal protein bTHXc]
- binding result [1]: binds

B1: chloroplast ribosomal protein uL22c (natural protein, UniProt P09594 1-199, looked up)
chain: MGFFKKKEKKAEFDVFRLYGLHHPEPGKCDEITTRGYSISMSVDKARRVIDQIRGRSYAETLMILELMPYRACYPIFKLIYSAAANASHNKQFNKANLIISKAEVNKGITLKKVKPRARGRSYMIKRPTCHITIVLRDITHFDSYDKFLESLTPKKLIALLGLMSTGRRRELLCGRFRENHKIKSFLYKIALFKRYEVM
- binding result [2]: binds

Binder: B2
- binding result [3]: binds

B3: chloroplast ribosomal protein uL29c (natural protein, UniProt P82248 59-168, looked up)
chain: VKKEDELKELRTKTNEQLNEEILQLKGELFMLRLQRSARENFKPSDFGRMRKRVARMLTVKREREIEQGVGKRLSRKLDKAWKRSIVVRPPPSLKKLQEKATAEAEAEKA
- binding result [4]: binds

Binder: B4
- binding result [2]: binds

B5: chloroplast ribosomal protein uS2c (natural protein, UniProt P08242 1-236, looked up)
chain: MTRRYWNINLEEMMEAGVHFGHGTRKWNPRMSPYISAKCKGIHIINLTRTARFLSEACDLVFDASSRGKQFLIVGTKNKAADSVARAAIRARCHYVNKKWLGGMLTNWSTTETRLHKFRDLRMEQTAGRLARLPKRDAAVVKRQLSHLQTYLGGIKYMTGLPDIVIIVDQQEEYTALRECITLGIPTICLIDTNCNPDLADISIPANDDAIASIRLILTKLVFAICEGRSSYIRNP
- binding result [5]: binds
- binding result [3]: binds

B6: plastid-specific ribosomal protein cL38 (natural protein, UniProt P82411 48-116, looked up)
chain: SSRPQKKGTAHHMKTRPKKTARWDIKRGPAVYPPLPPLPAEWTIVSSAVDEADSSSSTTSSSAEIAQSA
- binding result [6]: binds
- binding result [7]: binds

B7: chloroplast ribosomal protein uS3c (natural protein, UniProt P09595 1-218, looked up)
chain: MGQKINPLGFRLGTTQSHYSLWFSQPKNYAEGLQEDQKIRDCIKNYVQKNTKTSSGVEGIARIEIQKRIDLIQVIIHMGFPKLLIENRPQGVEDLKINVQKELNCVNRKLNIAITRIAKPYGDPNILAEFIAGQLKSRVSFRKAMKKAIELTEQADTKGIQIQIAGRIDGKEIARIEWIREGRVPLQTIRAKIDYCAYTVRTIYGVLGIKIWIFMGEE
- binding result [5]: binds
